For 1 molecule, Kd and kon results are on record in article PMC2857867.

The target in this assay is VACV strain WR IFNα/βBP B18 (vaccinia virus strain Western Reserve), P25213. The assay is described as follows: SPR. The following applies: remark: other sources report otherwise.

B1: hIL-29, Q8IU54 20-200 (ligand)
chain: GPVPTSKPTTTGKGCHIGRFKSLSPQELASFKKARDALEESLKLKNWSCSSPVFPGNWDLRLLQVRERPVALEAELALTLKVLEAAAGPALEDVLDQPLHTLHHILSQLQACIQPQPTAGPRPRGRLHHWLHRLQEAPKKESAGCLEASVTFNLFRLLTRDLKYVADGNLCLRTSTHPEST
With B1, the dissociation constant (Kd) was found to be 13.5 nM and the kon stood at 193000 M⁻¹ s⁻¹.

Broadly, the Kd is a measure of binding affinity in units of concentration. The low end stands for higher affinity, the high end for lower affinity. Broadly, the kon is a measure of how fast the partners come together. A high value points to faster complex formation.
